Results on one molecule are retold here after patent US20250101074A1 (Affibody, published 2025).

Common to all, as to experiment: SPR (Biacore), PEP07843 immobilized, analyte protein injected
A general note: Surface plasmon resonance follows binding to a sensor surface in real time, without labels.

One assay concerns the target hIL-1beta (human, UniProt P01584 117-269). The procedure: (§1) In the binding experiment, HBS-EP was used as running buffer and the flow rate was 30 μl/min. […] The analytes, i.e. the panels of 24 or 12 different proteins, were each diluted in HBS-EP or HBS-EP supplemented with 500 mM NaCl to final concentrations of from 0.4 to 250 nM and injected for 5 min. […] The results were analyzed using the BiaEvaluation software.
(§2) The Z-ABD-Z polypeptides were injected over surfaces containing HSA followed by injection of the analyte proteins.

The target in another assay is hIL-6 (human, UniProt P05231 29-212). How it is done:
as §1, §2

A further assay concerns the target T1, human IL-17F (human, UniProt Q96PD4 31-163).
T1 construct: R&D Systems cat. no; 1335-IL/CF; also called hIL-17F
T1 sequence: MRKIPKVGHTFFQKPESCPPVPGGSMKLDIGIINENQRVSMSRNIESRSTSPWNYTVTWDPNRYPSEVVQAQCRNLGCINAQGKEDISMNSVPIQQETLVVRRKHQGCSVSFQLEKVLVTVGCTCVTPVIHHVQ
How it is done:
as §1, §2

The next assay concerns the target T2, human IL-17A (human, UniProt Q16552 20-155).
T2 construct: Peprotech cat. no; 200-17; homodimeric cytokine; biotinylated with Sulfo-NHS-LC-Biotin for the ELISAs; also called hIL-17A; rhIL-17A
T2 sequence: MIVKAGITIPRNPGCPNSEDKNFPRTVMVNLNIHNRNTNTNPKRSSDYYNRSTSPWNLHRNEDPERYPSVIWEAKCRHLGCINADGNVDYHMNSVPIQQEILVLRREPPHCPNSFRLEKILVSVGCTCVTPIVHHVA
How it is done:
as §1, §2

Another assay concerns the target T3, IL-17RA (UniProt Q96F46 33-320).
T3 sequence (looked up): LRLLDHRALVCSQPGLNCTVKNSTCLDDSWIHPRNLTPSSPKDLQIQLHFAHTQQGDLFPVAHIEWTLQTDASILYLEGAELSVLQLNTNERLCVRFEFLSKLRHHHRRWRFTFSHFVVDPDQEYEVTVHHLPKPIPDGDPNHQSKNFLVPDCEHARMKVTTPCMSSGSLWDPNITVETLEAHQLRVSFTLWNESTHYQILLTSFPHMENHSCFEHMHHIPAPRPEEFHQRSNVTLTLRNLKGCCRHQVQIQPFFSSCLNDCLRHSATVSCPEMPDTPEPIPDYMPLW
How it is done:
as §1, §2

In assay [1] the target is Transthyretin/TTR/Prealbumin/PALB Protein (UniProt P02766 21-147). How it is done: as §1, §2

Consider GSSLAEAKEAANAELDSYGVSDFYKRLIDKAKTVEGVEALKDAILAALP (designed binder) [ABD variant PEP07843], for which the binding result is “no binding (tested: 50, 250 nM)” with hIL-1beta; “no binding (tested: 50, 250 nM)” with hIL-6; “no binding (tested: 50, 250 nM)” with human IL-17F; “no binding (tested: 2, 10, 50 nM)” with human IL-17A; “no binding (tested: 50, 250 nM)” with IL-17RA; “no binding (tested: 50, 250 nM)” in assay [1].
